The values below come from patent publication US20250084186A1 (published 2025).

Substitutions are numbered along the chain they refer to.

Assay [1] has as its target Ha16-1(3,5)5[ENPP3]_H1L1. Description: Biacore; kinetics. (In general: In SPR one partner is held on a chip, and binding of the other changes the refractive index at the surface.)
Assay [2] deals with Ha16-1(3,5)18[ENPP3]_H1L1. Description: Biacore; kinetics.
The target in assay [3] is ENPP3-A[ENPP3]_H1L1. Description: Biacore; kinetics.
For assay [4], the target named is Ha16-1(3,5)5[ENPP3]_H1L1. Nature of the assay: Biacore; steady state.
Assay [5] addresses Ha16-1(3,5)18[ENPP3]_H1L1. Nature of the assay: Biacore; steady state.
In assay [6] the target is ENPP3-A[ENPP3]_H1L1. Description: Biacore; steady state.
Assay [7] concerns the target T1, cynomolgus ENPP3 (cynomolgus, UniProt A0A2K5TKP4 49-874).
T1 chain: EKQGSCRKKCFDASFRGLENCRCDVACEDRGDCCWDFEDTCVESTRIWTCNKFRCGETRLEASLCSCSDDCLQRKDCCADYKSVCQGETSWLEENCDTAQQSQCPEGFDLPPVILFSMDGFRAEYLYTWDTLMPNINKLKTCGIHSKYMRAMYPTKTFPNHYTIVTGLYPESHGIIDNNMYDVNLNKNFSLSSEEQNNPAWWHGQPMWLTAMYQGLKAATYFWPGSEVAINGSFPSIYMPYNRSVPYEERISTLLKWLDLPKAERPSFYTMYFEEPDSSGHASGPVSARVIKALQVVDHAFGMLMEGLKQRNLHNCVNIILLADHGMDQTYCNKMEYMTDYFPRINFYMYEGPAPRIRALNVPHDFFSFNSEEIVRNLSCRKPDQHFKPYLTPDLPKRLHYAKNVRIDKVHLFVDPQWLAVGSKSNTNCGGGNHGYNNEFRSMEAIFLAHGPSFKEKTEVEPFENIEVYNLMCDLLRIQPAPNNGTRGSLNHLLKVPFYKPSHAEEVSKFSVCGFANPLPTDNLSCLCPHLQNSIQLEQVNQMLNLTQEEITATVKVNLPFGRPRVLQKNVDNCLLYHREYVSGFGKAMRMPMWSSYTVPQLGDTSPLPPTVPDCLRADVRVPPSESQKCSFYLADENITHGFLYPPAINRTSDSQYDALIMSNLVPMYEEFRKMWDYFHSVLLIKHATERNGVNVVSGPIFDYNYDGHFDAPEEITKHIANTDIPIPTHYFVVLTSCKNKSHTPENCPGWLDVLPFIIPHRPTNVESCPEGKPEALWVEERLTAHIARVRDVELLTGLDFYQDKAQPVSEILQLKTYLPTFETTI
Description: Biacore; kinetics.

The target of assay [8] is Human ENPP3. Nature of the assay: Biacore; kinetics.
Assay [9] deals with T1, cynomolgus ENPP3. Nature of the assay: Biacore; steady state.
Assay [10] addresses Human ENPP3. Nature of the assay: Biacore; steady state.
The next assay addresses human CD28 (human, UniProt P10747 19-152). Nature of the assay: -; scFv VHVL, 1+1 Fab-scFv-Fc.

B1: Cyno ENPP3 (enzyme)
chain: T1 chain
As to B1, the Kd in the assay with Ha16-1(3,5)5[ENPP3]_H1L1 [1] came to 21 nM; in [2] it was 110 nM; in the assay with ENPP3-A[ENPP3]_H1L1 [3], 320 nM; in the assay with Ha16-1(3,5)5[ENPP3]_H1L1 [4], 70 nM; in assay [5], 140 nM; in the assay with ENPP3-A[ENPP3]_H1L1 [6], 330 nM.

B2: AN1[ENPP3]_H1_L1.33 (antibody, V domains shown)
VH: EVQLVESGGGLVQPGGSLRLSCAASGFAFSNYGMSWVRQAPGKRLEWVSYISSGGGTTYYLDSVKGRFTISRDNAKNSLYLQMNSLRAEDTAVYYCARHRRVYYGYYFDYWGQGTLVTVSS
VL: DILLTQSPDFQSVTPKEKVTITCRASQSIGTSIHWYQQKPDQSPKLLIEYASESISGIPSRFSGSGSGTDFTLTINSLEAEDAATYYCQQSNSWPYTFGGGTKLEIK
For B2, the Kd amounted to 1800 nM with cynomolgus ENPP3 [7], 74 nM with Human ENPP3 [8], 1200 nM in the assay with cynomolgus ENPP3 [9] and 170 nM with Human ENPP3 [10].

B3: AN1[ENPP3]_H1L1 (antibody, V domains shown)
VH: B2 VH
VL: B2 VL with E49K
Turning to B3, the Kd with cynomolgus ENPP3 [7] was determined as 460 nM; in the assay with Human ENPP3 [8], 9 nM; in the assay with cynomolgus ENPP3 [9] it was 470 nM; with Human ENPP3 [10] it was 35 nM.

B4: H1.14_L1 (antibody, V domains shown)
VH: EVQLLESGGGLVQPGGSLRLSCAASGFTFSSYAMSWVRQAPGKGLEWVSTISGSGDSTYYADSVKGRFTISRDNSKNTLYLQMNSLRAEDTAVYYCAKSGPGLRQVGFDYWGQGTLVTVSS
VL: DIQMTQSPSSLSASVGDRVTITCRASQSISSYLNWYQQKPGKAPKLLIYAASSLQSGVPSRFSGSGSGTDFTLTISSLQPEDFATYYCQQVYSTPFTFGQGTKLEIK
On to B4, for which the Kd with human CD28 was 230 nM. This counts as sub-micromolar.

B5: H1.1_L1.71 (antibody, V domains shown)
VH: B4 VH with A33Y, G53E
VL: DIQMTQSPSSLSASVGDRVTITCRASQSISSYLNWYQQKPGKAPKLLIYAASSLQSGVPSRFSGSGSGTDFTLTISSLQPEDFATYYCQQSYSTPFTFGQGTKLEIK
B5 gave a Kd with human CD28 of 96 nM.

B6: H1.1_L1 (antibody, V domains shown)
VH: B4 VH with A33Y
VL: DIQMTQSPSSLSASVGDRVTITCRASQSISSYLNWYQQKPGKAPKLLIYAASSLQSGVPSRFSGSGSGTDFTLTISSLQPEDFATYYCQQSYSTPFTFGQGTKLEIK
Take B6: binding in the assay with human CD28 was put at a Kd of 600 nM.

B7: H1L1 (antibody, V domains shown)
VH: B4 VH
VL: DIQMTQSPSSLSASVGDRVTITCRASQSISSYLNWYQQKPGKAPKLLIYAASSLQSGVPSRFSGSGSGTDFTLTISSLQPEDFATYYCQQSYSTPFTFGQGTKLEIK
For the molecule B7, binding with human CD28 was characterised by a dissociation constant (Kd) of 1000 nM.

B8: H1_L1.71 (antibody, V domains shown)
VH: B4 VH with A33Y
VL: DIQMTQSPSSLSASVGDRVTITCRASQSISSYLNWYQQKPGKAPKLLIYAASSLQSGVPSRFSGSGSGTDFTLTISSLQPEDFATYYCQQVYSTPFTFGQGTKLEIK
For the molecule B8, binding in the assay with human CD28 was put at a Kd of 180 nM. This Kd lies about 5.6-fold lower than the previous one.

B9: H1.14_L1.71 (antibody, V domains shown)
VH: B4 VH with A33Y, G53E
VL: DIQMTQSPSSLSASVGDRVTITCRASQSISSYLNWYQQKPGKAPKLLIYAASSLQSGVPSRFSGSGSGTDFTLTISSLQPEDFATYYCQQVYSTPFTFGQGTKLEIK
As to B9, in the assay with human CD28, binding was characterised by a dissociation constant (Kd) of 37 nM.

By Kd is commonly meant a measure of binding affinity in units of concentration.
